Reference: paper PMC10728069

B1: Bsr-d1 promoter probe 4 (dsDNA)
DNA 1: AGCTTGATTAATTAGGTTTTACGACGAC
DNA 2: GTCGTCGTAAAACCTAATTAATCAAGCT
B2: Bsr-d1 promoter probe 3 (dsDNA)
DNA 1: CTACGTACTATACAGCTTGATTAATTAG
DNA 2: CTAATTAATCAAGCTGTATAGTACGTAG
B3: Bsr-d1 promoter probe 5 (dsDNA)
DNA 1: GGTTTTACGACGACGGCAACGGGGACAGAT
DNA 2: ATCTGTCCCCGTTGCCGTCGTCGTAAAACC
B4: Bsr-d1 promoter probe 1 (dsDNA)
DNA 1: AATCCCATCAAATCATCCACCGCTCGCT
DNA 2: AGCGAGCGGTGGATGATTTGATGGGATT
B5: Bsr-d1 promoter probe 2 (dsDNA)
DNA 1: ACCGCTCGCTGCTGCTGCTACGTACTA
DNA 2: TAGTACGTAGCAGCAGCAGCGAGCGGT
B6: probe 2 mutant competitor (dsDNA)
DNA 1: ACTAAAGAGAGCTGCTGCTACGTACTA
DNA 2: TAGTACGTAGCAGCAGCTCTCTTTAGT
B7: probe 1 mutant competitor (dsDNA)
DNA 1: AATCCCATCAAATCATCCAAAAAAAAAT
DNA 2: ATTTTTTTTTGGATGATTTGATGGGATT

target: T1, His-MoSPAB1ΔSP (Magnaporthe oryzae, UniProt G4N0C3 22-298); experiment: EMSA; […], buffer not stated; […]; conditions: protein: recombinant; tags: His, ProS2 (pCold-ProS2); label: 5' biotin (both strands); blunt

Binder | binding result
B1 | binds
B2 | binds
B3 | binds
B4 | binds
B5 | binds

target: T1, His-MoSPAB1ΔSP; experiment: competition; […], buffer not stated; […]; conditions: protein: recombinant; tags: His, ProS2 (pCold-ProS2); blunt

Binder | binding result
B6 | no binding
B7 | no binding
